Measured values as given in article PMC3585816.

Experiments:
[1] = test system: Iron regulatory protein 2 (rIRP2); assay: EMSA; conditions: aminoallyl-UTP-ATTO-680 incorporated in the labeled probe; competitor unmodified; 100 ng probe heated 3 min at 95 C, 120 ng His-IRP, 15 min room temperature, then 50 ug sodium heparin 10 min; 5% native acrylamide gel, 1x TBE; binding buffer …
[2] = test system: Iron regulatory protein 1 (rIRP1); assay: EMSA; conditions: aminoallyl-UTP-ATTO-680 incorporated in the labeled probe; competitor unmodified; 100 ng probe heated 3 min at 95 C, 120 ng His-IRP, 15 min room temperature, then 50 ug sodium heparin 10 min; 5% native acrylamide gel, 1x TBE; binding buffer …

FTL IRE WT
binding signal (% of WT signal) [1]: 100
binding signal (% of WT signal) [2]: 100
